Measurements: patent publication US20240018237A1 (SICHUAN KELUN BIOTECH BIOPHARMACEUTICAL, published 2024)

What was measured:
[1] = molecular target: T1, human ROR1 (full-length, on the cell surface) (human, UniProt Q01973 30-937); assay: cell-based or functional assay
[2] = molecular target: T2, human ROR2 extracellular domain (ECD) protein (human, UniProt Q01974 34-403); assay: ELISA on coated human ROR2 ECD protein (1 ug/mL), OD at 450 nm
T2 construct: extracellular domain; Bought protein; also called human ROR2 ECD protein; Sino Biologicals 16133-H08H
Experimental: It was confirmed by ELISA using extracellular domain (ECD) protein of human ROR2 that the binding specificity of the candidate antibodies to human ROR1 was higher than that of human ROR2. The specific method was as follows: 1 μg/mL human ROR2 extracellular domain (ECD) protein (Sino Biologicals, Cat. No.: 16133-H08H) was added in a 96-well ELISA plate (Thermo Fisher, Cat. No.: 5129) at 100 μL/well, for coating overnight at 4° C. 200 μL of washing buffer (1×TBS containing 0.05% Tween-20) was used to wash 3 times, different concentrations of eight purified mouse-anti-human ROR1 candidate antibodies and UC961 were added at 100 μL, incubated at 37° C. for 1 hour, and mouse-anti-human ROR2 antibody (R&D systems, Cat. No.: MAB2064) was used as a positive control. Washing was performed 3 times with 200 μL of washing buffer, 100 μL of anti-human IgG (Rockland Inc, Cat. No. 609-1304) or anti-mouse IgG secondary antibody (Rockland Inc, Cat. No. 610-1304) diluted at a ratio of 1:10000 were added to each well, incubated at 37° C. for 1 hour. Washing was performed 3 times with 200 μL of washing buffer, 100 μL of TMB (Thermo Fisher, Cat. No.: TMBW-1000-01) was added for color development in the dark for 10 minutes, then 100 μL of stop solution (Thermo Fisher, Cat. No.: 13361-100-10) was added to stop the color development, and reading was carried out by microplate reader at 450 nm.

[3] = molecular target: T1, human ROR1 (full-length, on the cell …); assay: flow cytometry on HT29 cells, MFI against antibody concentration
Source text: (§1) The affinity of the candidate antibodies to ROR1 on the surface of human cells was detected by flow cytometry. In addition to the Ba/F3-ROR1 overexpression cells, human mantle cell lymphoma cell line Jeko-1 (ATCC, Cat. No.: CRL-3006), human colon cancer cell line HT-29 (ATCC, Cat. No.: HTB-38), human lung cancer cell line A549 (ATCC, Cat. No.: CCL-185) were also used for the binding assay. The anti-human ROR1 antibody UC961 (for sequence, see WO2018237335A1) with mouse or human IgG1 Fc was used as a positive control, and the anti-2,4,6-trinitrophenol antibody (ATCC) with the corresponding mouse or human IgG1 Fc was used as a negative control. Mouse IgG isotype control (Thermo Fisher, Cat. No.: 31903) was also used as a negative control.

[4] = molecular target: T1, human ROR1 (full-length, on the cell …); assay: flow cytometry on A549 cells, MFI against antibody concentration
Source text: as §1

[5] = molecular target: T1, human ROR1 (full-length, on the cell …); assay: flow cytometry on Jeko-1 cells, MFI against antibody concentration
Source text: as §1

[6] = molecular target: T1, human ROR1 (full-length, on the cell …); assay: flow cytometry on Ba/F3-ROR1 cells, MFI against antibody concentration
Source text: as §1

[7] = molecular target: T1, human ROR1 (full-length, on the cell …); assay: flow cytometry, A549 cells
Experimental: (§2) The affinities of the purified anti-human ROR1 chimeric antibodies binding to the Ba/F3-ROR1, Jeko-1, HT-29 and A549 cells were analyzed by flow cytometry. The specific experimental steps were as follows: the Ba/F3-ROR1, Jeko-1, HT-29 and A549 cells were incubated with the purified chimeric antibodies of different concentration gradients on ice for 30 minutes, and the anti-ROR1 antibody UC961 with human IgG1 and the anti-TNP antibody were used as positive and negative controls respectively.

[8] = molecular target: T1, human ROR1 (full-length, on the cell …); assay: flow cytometry, HT-29 cells
Experimental: as §2

[9] = molecular target: T1, human ROR1 (full-length, on the cell …); assay: flow cytometry, Jeko-1 cells
Experimental: as §2

[10] = molecular target: T1, human ROR1 (full-length, on the cell …); assay: flow cytometry, Ba/F3-ROR1 cells
Experimental: as §2

human ROR1 ECD protein [11] = molecular target: T3, human ROR1 ECD protein (human, UniProt Q01973 30-406); assay: BLI (Octet), antibody on AHC sensor, ROR1 ECD in solution
T3 construct: range 30-406; Expressed in Expi293 or ExpiCHO cells; also called Recombinant human ROR ECD

human ROR1 ECD protein [12] = molecular target: T3, human ROR1 ECD protein; assay: BLI (Octet), antibody on AHC sensor, ROR1 ECD in solution, 1:1 model
Source text: Octet ForteBio is widely used in the detection of antibody-antigen dynamic affinity. This method was used to determine the dynamic affinities of the candidate chimeric antibodies 3D8-Chi, 19F6-Chi and 38F8-Chi and the positive control antibody UC961 to human ROR1.

T1 sequence (Q01973 30-937): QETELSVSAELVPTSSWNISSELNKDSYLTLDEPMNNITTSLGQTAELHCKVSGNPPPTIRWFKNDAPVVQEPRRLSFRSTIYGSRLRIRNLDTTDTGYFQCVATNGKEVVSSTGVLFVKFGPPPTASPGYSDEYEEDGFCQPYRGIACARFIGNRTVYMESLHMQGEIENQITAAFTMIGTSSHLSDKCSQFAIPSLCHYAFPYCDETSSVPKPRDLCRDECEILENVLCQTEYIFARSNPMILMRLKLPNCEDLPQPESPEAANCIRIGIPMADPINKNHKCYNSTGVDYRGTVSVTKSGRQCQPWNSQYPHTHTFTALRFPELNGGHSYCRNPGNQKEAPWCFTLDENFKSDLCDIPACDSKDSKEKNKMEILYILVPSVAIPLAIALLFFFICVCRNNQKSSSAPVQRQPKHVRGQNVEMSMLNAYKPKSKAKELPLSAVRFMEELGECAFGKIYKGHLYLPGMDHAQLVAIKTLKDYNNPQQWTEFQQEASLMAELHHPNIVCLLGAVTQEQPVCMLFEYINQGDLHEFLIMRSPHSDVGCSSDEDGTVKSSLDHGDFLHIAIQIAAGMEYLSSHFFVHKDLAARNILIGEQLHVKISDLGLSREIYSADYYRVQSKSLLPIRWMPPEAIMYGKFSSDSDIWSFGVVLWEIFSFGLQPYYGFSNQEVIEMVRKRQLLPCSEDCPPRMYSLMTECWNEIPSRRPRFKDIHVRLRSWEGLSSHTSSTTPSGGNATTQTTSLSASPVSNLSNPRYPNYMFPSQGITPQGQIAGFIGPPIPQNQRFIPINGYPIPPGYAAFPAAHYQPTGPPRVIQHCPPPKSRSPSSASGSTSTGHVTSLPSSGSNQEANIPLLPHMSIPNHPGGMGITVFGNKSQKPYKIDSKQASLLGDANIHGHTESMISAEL
T2 sequence (Q01974 34-403): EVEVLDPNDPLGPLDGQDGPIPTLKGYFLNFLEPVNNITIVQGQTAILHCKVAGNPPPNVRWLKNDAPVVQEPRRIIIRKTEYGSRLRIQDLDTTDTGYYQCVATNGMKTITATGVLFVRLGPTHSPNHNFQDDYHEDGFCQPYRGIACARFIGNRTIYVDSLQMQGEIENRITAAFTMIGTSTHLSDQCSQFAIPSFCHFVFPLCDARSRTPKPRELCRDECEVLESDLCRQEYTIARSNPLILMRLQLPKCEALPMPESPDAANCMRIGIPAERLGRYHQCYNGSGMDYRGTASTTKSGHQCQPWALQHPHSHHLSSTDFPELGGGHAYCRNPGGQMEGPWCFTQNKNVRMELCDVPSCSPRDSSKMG
T3 sequence (Q01973 30-406): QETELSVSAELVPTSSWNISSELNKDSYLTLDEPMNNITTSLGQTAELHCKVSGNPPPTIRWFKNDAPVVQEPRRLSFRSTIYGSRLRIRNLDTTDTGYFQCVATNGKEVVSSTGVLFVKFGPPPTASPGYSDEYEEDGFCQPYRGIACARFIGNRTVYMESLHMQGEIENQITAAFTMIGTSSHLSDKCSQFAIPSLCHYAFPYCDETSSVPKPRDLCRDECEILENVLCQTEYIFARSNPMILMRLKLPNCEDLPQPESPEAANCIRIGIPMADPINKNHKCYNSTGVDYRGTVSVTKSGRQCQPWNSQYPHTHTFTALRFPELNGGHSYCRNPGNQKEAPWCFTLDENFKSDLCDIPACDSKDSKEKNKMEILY

B1: Murine antibody 19F6.2.3 (antibody, V domains shown)
VH: DVQLQESGPGLVKPSQSLSLTCTVTGYSITSDYAWNWIRQFPGNKLEWMGYISYSGSIRYNPSLKSRISITRDTSKNQFFLQLNSVTTEDTATYYCARGEITYYFDYWGQGTTLTVSS
VL: DIKMTQSPASLSMAIGEKVTIRCITTTDIDDDMNWYQQKPGEPPKLLISEGNTLRPGVPSRFSSSGYGTDFVFTIENMVSEDVADYYCLQSNDLPLTFGAGTKLELK
notes: Hybridoma antibody
B1 was tested, and the “activity of inducing internalization on Jeko-1 cells (Mab-ZAP, by IC50), fold over UC961” value (from here on “activity … fold over UC961”) [1] was 23.4 fold, the binding result [2] was “no binding (tested: about 5000 ng/ml)” and the “EC50 (read off the curve)” value [3] was ~0.02 µg/mL. For the same binder, the “EC50 (read off the curve)” value [4] was ~0.01 µg/mL and the “EC50 (read off the curve)” value [5] was ~0.008 µg/mL.

B2: Murine antibody 3D8.2.3 (antibody, V domains shown)
VH: EVKLVESGGGLVKPGGSLKLSCAASGFTFSSYAMSWVRQTPEKRLEWVASINSGGSTYYPDSVKGRFTISRDNARNILYLQMSSLRSEDTAMYYCARVNYYGYGDYAMDYWGQGTSVTVSS
VL: DIKMTQSPSSMYASLGERVTITCKASQDINSYLSWFQQKPGKSPKTLIYRANRLVDGVPSRFSGSGSGQDYSLTISSLEYEDMGIYYCLQYDEFPYTFGGGTNLEIK
notes: Hybridoma antibody
With B2 the “activity … fold over UC961” value [1] was 3.8 fold, the binding result [2] was “no binding (tested: about 5000 ng/ml)” and the “EC50 (read off the curve)” value [4] was ~0.03 µg/mL. The “EC50 (read off the curve)” value [5] was ~0.02 µg/mL and the “EC50 (read off the curve)” value [6] was ~0.06 µg/mL.

B3: Murine antibody 38F8.1.1 (antibody, V domains shown)
VH: EVKLVESGGDLVKPGGSLKLSCTASGFTFSNYAMSWVRQTPEKRLEWVASISSGGPTYYPDSVKGRFTVSRDNARNILYLQMSSLRSEDTAMYYCARGYRYDVNWYFDVWGAGTSVTVSS
VL: DIKMTQSPSSMYASLGERVTITCKASQDINSYLTWFQQKPGKSPKTLIHRANRLVDGVPSRFSGSGSGQDYSLTISSLEYEDMGIYYCLQYDEFPYTFGGGTKLEIK
notes: Hybridoma antibody
For B3, the “activity … fold over UC961” value [1] was 5.3 fold, the binding result [2] was “no binding (tested: about 5000 ng/ml)” and the “EC50 (read off the curve)” value [3] was ~0.04 µg/mL. For the same binder, the “EC50 (read off the curve)” value [5] was ~0.03 µg/mL and the “EC50 (read off the curve)” value [6] was ~0.06 µg/mL.

B4: 3D8-Chi (antibody, human IgG1, kappa, V domains shown)
VH: EVKLVESGGGLVKPGGSLKLSCAASGFTFSSYAMSWVRQTPEKRLEWVASINSGGSTYYPDSVKGRFTISRDNARNILYLQMSSLRSEDTAMYYCARVNYYGYGDYAMDYWGQGTSVTVSS
VL: DIKMTQSPSSMYASLGERVTITCKASQDINSYLSWFQQKPGKSPKTLIYRANRLVDGVPSRFSGSGSGQDYSLTISSLEYEDMGIYYCLQYDEFPYTFGGGTNLEIKR
notes: Variable regions of 3D8.2.3 on human IgG1 / kappa constant regions; also called anti-human ROR1 chimeric antibody 3D8-Chi
For B4, the EC50 [7] was 0.28 nM, the EC50 [8] was 0.463 nM and the EC50 [9] was 0.619 nM. For the same binder, the EC50 [10] was 0.62 nM, the “fold stronger affinity than UC961 (by KD)” value (human ROR1 ECD protein [11]) was 2 fold and the Kd (human ROR1 ECD protein [12]) was 8.09 nM. The koff (human ROR1 ECD protein [12]) was 0.00381 s⁻¹ and the kon (human ROR1 ECD protein [12]) was 471000 M⁻¹ s⁻¹.

B5: 19F6-Chi (antibody, human IgG1, kappa, V domains shown)
VH: DVQLQESGPGLVKPSQSLSLTCTVTGYSITSDYAWNWIRQFPGNKLEWMGYISYSGSIRYNPSLKSRISITRDTSKNQFFLQLNSVTTEDTATYYCARGEITYYFDYWGQGTTLTVSS
VL: DIKMTQSPASLSMAIGEKVTIRCITTTDIDDDMNWYQQKPGEPPKLLISEGNTLRPGVPSRFSSSGYGTDFVFTIENMVSEDVADYYCLQSNDLPLTFGAGTKLELKR
notes: Variable regions of 19F6.2.3 on human IgG1 / kappa constant regions; also called anti-human ROR1 chimeric antibody 19F6-Chi
In the case of B5, the EC50 [7] is reported as 0.087 nM, the EC50 [8] is reported as 0.266 nM and the EC50 [9] is reported as 0.271 nM. For the same binder, the EC50 [10] was 0.325 nM, the “fold stronger affinity than UC961 (by KD)” value (human ROR1 ECD protein [11]) was 34.6 fold and the Kd (human ROR1 ECD protein [12]) was 0.456 nM. For the same binder, the koff (human ROR1 ECD protein [12]) was 0.000514 s⁻¹ and the kon (human ROR1 ECD protein [12]) was 1.13e+06 M⁻¹ s⁻¹.

B6: 38F8-Chi (antibody, human IgG1, kappa, V domains shown)
VH: EVKLVESGGDLVKPGGSLKLSCTASGFTFSNYAMSWVRQTPEKRLEWVASISSGGPTYYPDSVKGRFTVSRDNARNILYLQMSSLRSEDTAMYYCARGYRYDVNWYFDVWGAGTSVTVSS
VL: DIKMTQSPSSMYASLGERVTITCKASQDINSYLTWFQQKPGKSPKTLIHRANRLVDGVPSRFSGSGSGQDYSLTISSLEYEDMGIYYCLQYDEFPYTFGGGTKLEIKR
notes: Variable regions of 38F8.1.1 on human IgG1 / kappa constant regions; also called anti-human ROR1 chimeric antibody 38F8-Chi
B6 showed an EC50 [7] of 0.091 nM, an EC50 [8] of 0.22 nM and an EC50 [9] of 0.563 nM. For the same binder, the EC50 [10] was 0.416 nM, the “fold stronger affinity than UC961 (by KD)” value (human ROR1 ECD protein [11]) was 5 fold and the Kd (human ROR1 ECD protein [12]) was 3.17 nM. The koff (human ROR1 ECD protein [12]) was 0.00299 s⁻¹ and the kon (human ROR1 ECD protein [12]) was 942000 M⁻¹ s⁻¹.
